Series [1] addresses T1, von Willebrand factor (VWF) (Homo sapiens, UniProt P04275 P04275:764-2813). The series can be described thus: filter; Bmax 90%; 2 mM CaCl2, 37 C. Particulars: tags: factor VIII free human purified VWF, Haematologic Technologies Inc; label: 5'-32P. How it is done: (§1) Affinity constants (Kd values) were determined using double-filter nitrocellulose filter binding assays (Rusconi et al, Thromb. Haemost. $4:841-848 (2000)). All binding studies were performed in binding buffer F (20 mM HEPES, pH 7.4, 150 mM NaCl, 2 mM CaCl₂, and 0.01% BSA) at 37° C. Human purified VWF (factor VIII free) was purchased from Haematologic Technologies Inc. (Essex Junction, Vt.) and used in the double-filter nitrocellulose filter binding assay to determine the Kd of the aptamers. Briefly, RNA were end-labeled at the 5′ end with T4 polynucleotide kinase (New England Biolabs, Beverly, Mass.) and [γ³²P] ATP (Amersham Pharmacia Biotech, Piscataway, N.J.) (Fitzwater and Polisky, Methods Enzymol. 267:275-301 (1996)). End-labeled RNA was diluted in binding buffer F, heat denatured at 65° C. for 5 minutes, and subsequently equilibrated at 37° C. Direct binding was performed by incubating trace ³²P-RNA with varying concentrations of VWF protein in binding buffer F at 37° C. for 5 min. The fraction of the nucleic acid-protein complex which bound to the nitrocellulose membrane was quantified with a phosphorimager (Molecular Dynamics, Sunnyvale, Calif.). Non-specific binding of the radiolabeled nucleic acid was subtracted out of the binding such that only specific binding remained (Wong and Lohman, Proc. Natl. Acad. Sci. USA 90:5428-5432 (1993)).

The target in series [2] is T1, von Willebrand factor (VWF). As to the kind of experiment: filter; Bmax 68%; 2 mM CaCl2, 37 C. The following applies: tags: factor VIII free, Haematologic Technologies Inc; label: 5'-32P. How it is done: as §1
Series [3] has the same target. As to the kind of experiment: filter; Bmax 51%; 2 mM CaCl2, 37 C. The following applies: tags: factor VIII free, Haematologic Technologies Inc; label: 5'-32P. How it is done: as §1
Series [4] shares this target. The series can be described thus: filter; Bmax 72%; 2 mM CaCl2, 37 C. The following applies: tags: factor VIII free, Haematologic Technologies Inc; label: 5'-32P. How it is done:
as §1

Series [5] shares this target. As to the kind of experiment: filter; Bmax 70%; 2 mM CaCl2, 37 C. The following applies: tags: factor VIII free, Haematologic Technologies Inc; label: 5'-32P. How it is done: as §1
For series [6] the target is unchanged. As to the kind of experiment: filter; Bmax 53%; 2 mM CaCl2, 37 C. The following applies: tags: factor VIII free, Haematologic Technologies Inc; label: 5'-32P. How it is done:
as §1

For series [7] the target is unchanged. As to the kind of experiment: filter; Bmax 38%; 2 mM CaCl2, 37 C. The following applies: tags: factor VIII free, Haematologic Technologies Inc; label: 5'-32P. How it is done:
as §1

Series [8] has the same target. The series can be described thus: filter; Bmax 25%; 2 mM CaCl2, 37 C. The following applies: tags: factor VIII free, Haematologic Technologies Inc; label: 5'-32P. How it is done: as §1
The target is the same in series [9]. The series can be described thus: filter; Bmax 62%; 2 mM CaCl2, 37 C. Particulars: tags: factor VIII free, Haematologic Technologies Inc; label: 5'-32P. How it is done: as §1
Series [10] has the same target. The series can be described thus: filter; Bmax 33%; 2 mM CaCl2, 37 C. The following applies: tags: factor VIII free, Haematologic Technologies Inc; label: 5'-32P. How it is done: as §1
Series [11] shares this target. As to the kind of experiment: filter; Bmax 21%; 2 mM CaCl2, 37 C. Particulars: tags: factor VIII free, Haematologic Technologies Inc; label: 5'-32P. How it is done: as §1
Series [12] shares this target. As to the kind of experiment: filter; Bmax 50%; 2 mM CaCl2, 37 C. The following applies: tags: factor VIII free, Haematologic Technologies Inc; label: 5'-32P. How it is done: as §1

B1: T94 vrt1 (ssRNA)
RNA: ACGAACUGCCCUCUUUUUUGACGCACAGACGU
modifications: 2'-F C2,U7,C9,C10,C11,U12,C22,C24,C30,U32; ribo A1,G3,G8,A21,G23,A25,G31; rest 2'-OMe; 3' idT
Take B1: the Kd in [1] was determined as 0.9 nM.

B2: T95 vrt1 (ssRNA)
RNA: ACGAACUGCCCUCUUUUUUUUGACGCACAGACGU
modifications: 2'-F C2,U7,C9,C10,C11,U12,C24,C26,C32,U34; ribo A1,G3,G8,A23,G25,A27,G33; rest 2'-OMe; 3' idT
For B2, in [1], the affinity, expressed as Kd, was 0.9 nM.

The molecule ACGAACUGCCCUCAGCUACUUAUGUUGCUGACGCACAGACGU (ssRNA, 2'-F C and U; 2'-OH A and G; 3' idT) [T37] showed a Kd in series [2] of 10 nM.

B3: T10 (ssRNA)
RNA: GGGAGGUGGACGAACUGCCCUCAGCUACUUUCAUGUUGCUGACGCACAGACGACUCGCUG
modifications: 2'-F C and U; 2'-OH A and G; 3' idT
Consider B3, for which the affinity in series [3], expressed as Kd, was 18.4 nM.

For the molecule ACGAACUGCCCUCGUAAGACGCACAGACGU (ssRNA, mAmCmGmAmAmCmUmGfCfCfCmUmCmGmUmAmAmGmAfCrGfCmAmCmAmGmAmCmGfUidT) [DTRI-011], the equilibrium dissociation constant (Kd) in series [4] turned out to be 3.8 nM.

For the molecule ACGAACUGCCCUCGAUCGACGCACAGACGU (ssRNA, mAmCmGmAmAmCfUmGfCfCfCmUmCmGmAmUmCmGmAfCrGfCmAmCmAmGmAmCmGfU-idT) [T59 vrt17], the Kd in series [5] came out at 13 nM.

Take ACGAACUGCCCUCGAUCGACGCACAGACGU (ssRNA, mAfCmGmAmAmCfUmGfCfCfCfUmCmGmAmUmCmGmAfCmGfCmAmCmAmGmAfCmGfU-idT) [T59 vrt4]: binding in series [6] was characterised by a dissociation constant (Kd) of 364 nM.

B4: T25 vrt3 (ssRNA)
RNA: ACGAACUGCCCUCAGCUACUUUCAUGUUGCUGACGCACAGACGU
modifications: mAfCmGrArAfCfUrGfCfCfCfUfCrArGfCfUrAfCfUfUfUfCrAfUrGfUfUrGfCfUrGrAfCrGfCrAfCrArGrAfCmGfU-idT (m=2'-OMe, f=2'-F, r=2'-OH)
Molecule B4 registered a Kd in series [7] of 9.2 nM.

B5: T25 vrt24 (ssRNA)
RNA: ACGAACUGCCCUCAGCUACUUUCAUGUUGCUGACGCACAGACGU
modifications: rAfCrGrArAfCfUrGfCfCfCfUfCrArGfCfUrAfCfUfUfUfCrAfUrGfUfUrGfCfUrGrAmCrGfCrAfCrArGrAfCrGfU-idT
In [8], B5 had a Kd of 55 nM.

B6: T25 vrt21 (ssRNA)
RNA: ACGAACUGCCCUCAGCUACUUUCAUGUUGCUGACGCACAGACGU
modifications: rAfCrGrArAfCfUrGfCfCfCmUfCrArGfCfUrAfCfUfUfUfCrAfUrGfUfUrGfCfUrGmAfCrGfCrAfCrArGrAfCrGfU-idT
Consider B6, for which the affinity in series [9], expressed as Kd, was 17 nM.

B7: T25 vrt4 (ssRNA)
RNA: ACGAACUGCCCUCAGCUACUUUCAUGUUGCUGACGCACAGACGU
modifications: mAmCmGrArAfCfUrGfCfCfCfUfCrArGfCfUrAfCfUfUfUfCrAfUrGfUfUrGfCfUrGrAfCrGfCrAfCrArGrAmCmGmU-idT
Molecule B7 yielded a Kd in series [10] of 5.9 nM.

B8: T25 vrt10 (ssRNA)
RNA: ACGAACUGCCCUCAGCUACUUUCAUGUUGCUGACGCACAGACGU
modifications: rAfCrGrArAfCfUrGfCfCfCfUmCmAmGmCmUmAfCfUfUfUfCrAfUrGmUmUmGmCmUmGrAfCrGfCrAfCrArGrAfCrGfU-idT
B8 returned a Kd in series [9] of 5.7 nM.

Molecule CCGAACUGCCCUCAGCUAUUAUUAGCUGACGCACAGACGG (ssRNA, 2'-F C and U; 2'-OH A and G; 3' idT) [T30] displayed a Kd in series [11] of 39.3 nM.

ACGAACUGCCCUCAGACUUUCAUGUCUGACGCACAGACGU (ssRNA, 2'-F C and U; 2'-OH A and G; 3' idT) [T39]: the Kd in [12] came to 11 nM.

These data come from patent publication US20190218553, “VON WILLEBRAND FACTOR (VWF)-TARGETING AGENTS AND METHODS OF USING THE SAME” (DUKE UNIVERSITY, published 2019).
